{
  "source": "patent US9289468B2",
  "about": "“Fusion protein comprising circularly permuted form of trail/Apo2L, coding gene and use thereof” (Beijing Sunbio Biotech Co. Ltd., priority 2011, dated 2016)",
  "molecules": {"B1": {"name": "NCPT-1.M1: MG+His6+NCPT-1 fusion protein, SEQ ID NO: 5 (protein)", "chain": "MGHHHHHHTLSSPNSKNEKALGRKINSWESSRSGHSFLSNLHLRNGELVIHEKGFYYIYSQTYFRFQEEIKENTKNDKQMVQYIYKYTSYPDPILLMKSARNSCWSKDAEYGLYSIYQGGIFELKENDRIFVSVTNEHLIDMDHEASFFGAFLVGGGGGGRVAAHITGTRGRSNT", "modifications": "NCPT-1.M1 polypeptide sequence"}},
  "key": {"NCI-H460 cells [1]": {"test_system": "NCI-H460 cells", "assay": "Assay of killing activity on lung cancer cell line (crystal violet, IC50)", "format": "cell-based, human", "protocol": "The NCI-H460 cells (ATCC) were cultured in flasks until logarithmic growth phase, digested with 0.25% trypsin (Amresco), collected by centrifugation (1000 rpm, 5 min), resuspended in RPMI1640 medium (Invitrogen) containing 3% fetal bovine serum (FBS), counted and adjusted to 1.5×10^5/ml cell suspension, added into 96-well culture plates (Nunc) at 100 μl/well, and incubated at 37° C. in 5% CO2 incubator overnight. The sample to be tested was diluted to a certain concentration with 1640 medium containing 3% FBS, and further diluted at 4-fold dilutions (8 dilutions). The supernatant in the culture plate was discarded, and serial dilutions of the sample to be tested was added into the plate at 100 μl/well with a negative control and blank control set aside, incubated at 37° C. under 5% CO2 for 20-24 hours. Following examination under microscope, the supernatant was discarded, each well was added 50 μl 0.05% crystal violet solution (50 mg crystal violet was dissolved in 20 ml anhydrous ethanol, and water was added to the volume of 100 ml, then stored at room temperature) and stained for 3-5 minutes. The crystal violet was carefully washed with flowing water, the remaining water was removed by spin-drying, a destaining solution (50 ml distilled water, 50 ml anhydrous ethanol, and 0.1 ml glacial acetic acid were thoroughly mixed and stored at room temperature) was added at 100 μl/well, then the reading at OD570 was measured on a microplate reader (Bio-Rad 680) (reference wavelength of 630 nm). The inhibitory concentration 50 (IC50) of each sample was calculated by a four-parameter Logistic fitting using Sigmaplot10.0 software. The IC50 for CPT and each mutant of NCPT-1, NCPT-2, and NCPT-3 were calculated, and the activity change of each mutant was represented as a ratio of the IC50 of each mutant to that of CPT (Table 1)."}, "[2]": {"test_system": "human lung cancer cell line NCI-H460", "assay": "TUNEL staining of apoptosis", "format": "cell-based", "settings": "15 ng/ml, 4 h", "protocol": "FIG. 4. TUNEL assay of apoptosis of human lung cancer cell line NCI-H460 induced by NCPT-1.M1. The NCI-H460 cells were incubated with NCPT-1.M1 (15 ng/ml) for 4 h and then prepared as smears before TUNEL staining. […] In control group, nucleus remains intact, and no characteristic brown stained chromatins are seen (A).\nDuring the process of apoptosis, the genomic DNA can be broken into double-strand, low molecular weight DNA fragments and high molecular weight single-stranded DNA fragments with broken ends (gaps), and these DNA strand gaps can be identified using enzyme-labeled nucleotide 3′-terminal labeling method. In the case of catalytic action of terminal deoxynucleotidyl transferase (TdT), FITC-labeled nucleotide can be incoporated to the free 3′ end nucleotide with template-independent manner, and thereby making the gap of the DNA strand labeled (TUNEL method). The labeling FITC can be recognized by horseradish peroxidase (POD) conjuncated sheep-derived Fab fragment. Upon development with DAB (3,3-diaminobenzidine), the cells stained as brown, which were apoptotic cells, were examined under light microscopy. TUNEL technique is a common method to detect apoptosis. The apoptosis upon incubation of NCI-H460 cell with NCPT-1.M1 was examined using TUNEL technique. […]"}, "NCI-H460 cells [3]": {"test_system": "NCI-H460 cells", "assay": "Internucleosomal DNA fragmentation (agarose gel electrophoresis)", "format": "cell-based, human", "settings": "15 ng/ml, 2 hours", "protocol": "FIG. 5. The agarose gel electrophoresis analysis of internucleosomal DNA fragmentation of NCI-H460 cells after incubated with NCPT-1.M1 for varying time.\nMarker: 200 bp-2000 bp DNA markers with 200 bp interval;\nControl: solvent control;\n2 h, 4 h, 6 h: represent incubation with 15 ng/ml NCPT-1.M1 for 2 h, 4 h, 6 h, respectively.\nNCI-H460 cells at logarithmic growth phase were incubated with NCPT-1.M1 (a final concentration of […]) for 2 h, 4 h, 6 h, and the medium control group was not added with NCPT-1.M1. All adherent and floating cells (approximately 5×10^6) were collected, and DNA was extracted (Wen Jinkun, Principles and experimental techniques of medical molecular biology, 236-237 (1999)). DNA sample was removed and mixed with 6× loading buffer, and subjected to 1.8% agarose gel (a final concentration of ethidium bromide of 0.5 μg/ml) electrophoresis. The gel was observed under ultraviolet light source and photographed, and analyzed for DNA fragmentation. […] To the contrary, in the DNA electrophoresis of the medium control group, a band corresponding to a macromolecule is very near to the loading well, and there is no DNA fragmentation ladder. With the increasing incubation time with NCPT-1.M1, the DNA ladder becomes weaker and vague, and is illegible (FIG. 5), which might be due to DNA being degraded into smaller fragments."}, "RPMI8226 xenograft tumor": {"test_system": "RPMI8226 xenograft tumor", "assay": "Inhibitory activity on xenograft tumor of human multiple myeloma", "format": "in vivo, athymic nude mice", "settings": "15 mg/kg i.p. once a day for 8 consecutive days", "protocol": "FIG. 8. […] Athymic nude mice (Beijing Huafukang Biotechnology Co., Ltd.) were subcutaneously inoculated with RPMI8226 tumor cells (5×10^6/mouse). When the tumor grew to about 500 mm^3, the mice were divided into several groups, which were intraperitoneally injected with normal saline (control group), NCPT-1.M1 (15 mg/kg) and wild-type TRAIL (wtTRAIL, 15 mg/kg or 45 mg/kg) respectively once a day for 8 consecutive days. The tumor volumes were measured with a vernier caliper every two days.\nAthymic nude mice (Beijing Huafukang Biotechnology Co., Ltd.) were subcutaneously inoculated with 5×10^6 RPMI8226 tumor cells/mouse. When the tumor grew to the volume of 500 mm3, the mice were divided into several groups, which were intraperitoneally injected with normal saline (negative control group), NCPT-1.M1 (15 mg/kg) and wtTRAIL (15 mg/kg or 45 mg/kg) once a day for 8 consecutive days. The tumor volumes were measured with a caliper every two days."}},
  "note": "Entries after “also recorded” stand apart in the source; their conditions may differ.",
  "data": [
    {"molecule": "B1", "values": [
      {"measurement": "Ratio of IC50 of mutants to IC50 of CPT (H460 cells)", "setting": "NCI-H460 cells [1]; 20-24 hours, crystal violet", "value": 0.1},
      {"measurement": "killing activity compared to that of CPT", "setting": "NCI-H460 cells [1]; based on IC50", "value": "significantly higher than that of CPT"},
      {"measurement": "apoptosis by TUNEL staining", "setting": "[2]", "value": "a large number of NCI-H460 cells experience apoptosis; also recorded: Almost all of the tumor cells exhibit characteristic of apoptosis"},
      {"measurement": "DNA fragmentation ladder", "setting": "NCI-H460 cells [3]", "value": "showed obvious ladder"},
      {"measurement": "Tumor growth rate compared with wtTRAIL 45 mg/kg", "setting": "RPMI8226 xenograft tumor", "value": "significantly lower than that of TRAIL group with a dose of 45 mg/kg; also recorded: significantly lower than that of wtTRAIL group with a dose of 45 mg/kg"}
    ]}
  ]
}
